Assay results from the DeepSol protein solubility set.

Assay: soluble on expression in E. coli; label from the status in PepcDB or PDB records
With “MSWQLALYNGLWRALTPLVRRYLKKRARKAPAYLEHWDERFGQALSPSATGAIWIHAVSVGETRAAQPLVAAIRREWPDAPLLLTQMTPTGRATAEQLYPDAEVRYLPYDYPQAAADFLRAYRPRCGVLMETEIWPNLIHAAAAQRIPLLLANARLSEKSLNGYRKIAGLISPAIAKLTAVAAQTAEDADRLRQLGARSVSVCGSSKYDIEVPEAQRHLAADFRAMAGGRRALLCASTRDGEEALILDAWLAAGAAVGDTLLVLVPRHPERWDEVEKLAAERGLKSQRRSGGAAIAADTRVWLGDSMGEMFGYLGACDVAFIGGSLLPYGCHNLIEPAQVGVPALFGPSVFNFQQAAADSLAAGAGRQVGDAAALVSTALSLMDDPAAGEAMRQGAVRFRDAHRGASERMLALIREAMSAGSEKLEHHHHHH” the “soluble on expression in E. coli” value was “not soluble”. For “MSYAKEMLDAIEAGQMETAKQLFTQVLAHDDDETQYNLAEELYALGFNGQAKRLYQGLLGRYPDQGDLATALADIAVSDGDTDAALNYLSRIQPGDPAYVQSLVSAADVYQTLGLYEVSEQKLLEAKRLAPDEPVVTFALGEFYFDWGHFAEAISAYNELLAAGTTELAGVNIEARLAASLAQTGQYEDAVAAYEDVGVDALDLNGRFELGGLYLQLDDPAKAITNLQAVIDSDPSYANAYLPLARAYEAQNQPDKALDTVQAGVMVDDTNPTLYALGGKLALSEDNVKLAETYLQKALAIDPEDQGNMLAWSNFLVQEERDQENVDFLDQIDRSGDVDPQIYWNMAKSYDRLENIKKARENYLLAFNRFQDSPDFLHDIIDFFQSTGARAELKAALVRYLKLVPTDDEMQARLDELNAETDLEHHHHHH”, the “soluble on expression in E. coli” value was “soluble”. In the case of “MSYGDGLSGAEYLASIYGTEKDKVNCSFFFKTGACRHGDKCSRAHHTPTFSPTVVLKNFYHNPVVDVRQADAFDKVGKRNDQEQRYFDDFYEEVFVEMERKYGEVEEINVCENIGEHMVGNVYVKFMKEEDAEKAKNDLNNRWFNGQPIYAELCPVTDFRESRCRQHEVTTCSKGGFCNFMHLKAISAELGDRLYGRRGRRADAAGHYPSQRGGSGGGGGGGGGGGYGSGGGWGGGGGGRDRDRGGWGGGGGGRGYGGGGGGGGYGYGGGGGGRRRSRSRDRRRY”, the “soluble on expression in E. coli” value is reported as “not soluble”. For “MSYNNSYDVIILAGGLSKRFGADKCCFEVNSKTMLDRLLEQFDNPIVVSRSPRRIKKGILVIEKGEYEGPVKGVREGLKYVRRDRVFITGCDFPFLIKNLVDYVCSKPYDIVIPFDHRPQPLLACYSTELLNKNIDKINGLVELIELSSSVYFIGTEELLKIDPFLYSLININSIIDLIYRPIRIKTKSNFILRLEHHHHHH”, the “soluble on expression in E. coli” value was “not soluble”. With “MSYQFTELKEELIIKKIVSLHYFEYMSDFTFPGESHNFWEFLYVDKGELQVTADREKFILRQGQIIFHRPNEFHALAANNVIAPNLVVISFEAGEPCMAFFEHKILTVGESERNLLSQIIAEARETFDGPMDDPYMEVLSRRESIPFGAEQMIKIHLEQFLIQLFRNFSGTLAFGENHKLNGAHAPGKSPALADGNELFSDILDYLDRNIGKSLTVEKICRDNLIGVSQLKKLFRTYQGSGVMECFNQMKINAAKQMIRNQQMNFTQIADALGYTSVHYFSRQFKKLTDMTPTEYRASIMLRAKRPQRKHL” the “soluble on expression in E. coli” value was “not soluble”. With “MSYSPSLKEIIAILQKYTSKNYQSNCKTRPDGKLELSLNGVFEEIVKTPGKTRYVTHKQLDQKLKDFKQDLMVELHDTFATKTDLKESEARINQKLEALIQIVMVQGEQIKVHGEQINKLTQAVEKQGEKIEAQGQQIQKVNETLNFVVESLGSIHKRLDSMEGRLDSMENRLDKLESKLEHHHHHH” the “soluble on expression in E. coli” value was “not soluble”. With “MSYYHHHHHHDYDIPTTGNLYFQGAMVAISFRPTADLVDDIGPDVRSCDLQFRQFGGRSQFAGPISTVRCFQDNALLKSVLSQPSAGGVLVIDGAGSLHTALVGDVIAELARSTGWTGLIVHGAVRDAAALRGIDIGIKALGTNPRKSTKTGAGERDVEITLGGVTFVPGDIAYSDDDGIIVV” the “soluble on expression in E. coli” value was “soluble”. With “MSYYHHHHHHLESTSLYKKAGSENLYFQGARDQGADEAREYEPGQPGMYELEFPAPQLSSSDGRGPVLVHALEGFSDAGHAIRLAAAHLKAALDTELVASFAIDELLDYRSRRPLMTFKTDHFTHSDDPELSLYALRDSIGTPFLLLAGLEPDLKWERFITAVRLLAERLGVRQTIGLGTVPMAVPHTRPITMTAHSNNRELISDFQPSISEIQVPGSASNLLEYRMAQHGHEVVGFTVHVPHYLTQTDYPAAAQALLEQVAKTGSLQLPLAVLAEAAAEVQAKIDEQVQASAEVAQVVAALERQYDAFIDAQENRSLLTRDEDLPSGDELGAEFERFLAQQAEKKSDDDP” the “soluble on expression in E. coli” value was “soluble”. With “MTAALPDLSFHPAWHAQLELAYARAGDATRPVTRRHAGPLRVQKHLYAEGPEVCQHILVHPPGGIAGGDSLAFDVRLGERAWAQLTSPGAAKWYRAACPARQTLEIHLEPGATLEWLPQESIVFAGAQAELETRIQLRGDARLFYWDMVALGRPASGERFASGHFVAALDIRRDDRLLWHERQRIDGGDRLLDSPIGLAGHPVLATLVASGEIDTDLLQRCRALPCAGRGNLSQLPGGLLVARCLADEALHARAWLIELWRLLRPALLGREAVPPRIWSTLEHHHHHH” the “soluble on expression in E. coli” value was “not soluble”. In the case of “MTADSCNPCLTLENTIDVQEVPMTKSVVLADPRGFCAGVDRAILTVQTILKAAEASGKRTREDGLPPVYVRRQIVHNKHVVEDLAGQGAVFVQELAEIPDAAAQAGIPVVFSAHGVSPVVKAEAERRGMHVVDATCPLVGKVHREVLRFVREGYEIVYIGHKGHDEAVGVVGESPEHVHLIEHESDVDSLDFAPDTKLVLLSQTTLSVDETADTIAALKAKFPWIQEPPSSDICYATSNRQAAVKLVAQQSDCVVIVGSANSSNSVRLMEVAQEGLGERGKAYRVDDASELDPAWFEGLESVGISSGASVPDELVSGVIDALQNLGFTGMKSVETIKENMHFVLPAELRRKKLEHHHHHH”, the “soluble on expression in E. coli” value is reported as “soluble”. In the case of “MTAETNYFWLNCGYNRWNHNEPLVGQTALFESGAHFNPSQGFRAFKKAKVGDQVIFYQVQTDTGLLGCGEIISVETGAQNKIRVQFRFNEQLKPLTADYLKRSEALEFRMSNMKETLFNQITAEEFDLISGLGKGEIKIPRYFFLAETEEFEPGNQYTIYTHTYNGIKRNGYHFYTQLEEGDNIIFYNRTKNQSVVGIGEVSKHIHEKPPIPGRTNSTVIEVSYEKDITPITLSTLNKHPKLKNLYFLQENAKQAIASMSQAQYDAIIEMSDNNGLKSPFEMVKKPDMLESEKEEALKPFILLVVDRKEEGLKAANDLLQKANANPVITTGHPDFSEDMLYGKYLPNETGALYYREGFITQLMPKKDKSYLVIDNFNRIDTDIFQTYINVLEGYEVTLPRYNKDGNMIKWSRQKDSFYYFNPNWHIVGITYDSLEEIKEKYSEQFLKYTRIVKVKHD”, the “soluble on expression in E. coli” value is reported as “not soluble”. In the case of “MTCLSRDWATAQRLVEWALASTRCECFNVDSNFMAGLCLVENPTKQHYSFEVRKQVVDRFNAGQSKMDLAREFGLSSDQLVSSWVRAWRAGGDEALRPKPKGRPKGSASSKPLTEEDRLRREVEKLRAENAYLKKLRDLRNQRRSLEHHHHHH”, the “soluble on expression in E. coli” value is reported as “soluble”. For “MTDARTTVVVITHNRCAEVLRTLDRLAELPERPAVIVTDNGSTDGTAAAVARHHPGVRLLRSGRNLGAVGRNLAVRQVTTPYVAFCDDDSWWAPGSLSGAADLLDRYPAVGSVTARILVEPEGTEDPIVEELRDSPVPRPDWLPGPALGSFLAAATVLRTDAFRAAGGFHPRLWLGGEEELLAADLAANGWWLTYAGQLTIHHHPSGVRDSTVRRSHGIRNTLWFTWLRRPVGPALRRTLHLARTVPRDTASLRAFAEATAALPWVLRERRVLPPEVEARLRALEPAQRDSTARSYTGLEHHHHHH”, the “soluble on expression in E. coli” value was “not soluble”. In the case of “MTDFFRFPNTPHLLWLGQGQPRDDKILSDAEIAALLQDEVLIEEKLDGANLGISLDEHGELRAQNRGQYLPQPFSGQFSRLNSWLGQHGEILKHTLTPEMILFGEWCAARHSLDYNKLPDWFLLFDVYDREAGKFWSVERRNQLAQKLNITTVPLLKRTKITCNQLVQLLDDAQSRYRSGKVEGIVIRCDSPLWCESRAKLVNREFVQAIEDHWRSRSIEWNLVHAGSVKRS”, the “soluble on expression in E. coli” value is reported as “not soluble”. With “MTDFQKQFFARLHIEEKDTVSFEDLSNIMYAMAQTVPFENLNILEKNFKEISKENLKEKILVNNRGGLCYELNPTMYYFLKDSGFDVHLVSGTVYNAANSIWAVDSGHIATVLTHHNELYLIEVGFGSYLPLAPVPFLGEVIHSATGDYRIRKEMTEKGNYILEMRKNNEFLDQSAADDWTLGYAFYIEEVDEEKANTAQKIIVEHEGSPFNKVPLIVKLTEDGHASLTKDSLTVAKNGKKTKETVTDMQYTNLLHSKFGITL” the “soluble on expression in E. coli” value was “not soluble”. In the case of “MTDFSRTFSGTPSAVLPTANRFFRPPLPSAHVARPRLCRRLRDGLDGRLLLIAAPAGFGKSSLAIEFCESLDPRWQSLWLGLSSRESDPGRFLERLLDGLRQYHPTLGEEALGLLKMRQRHQPFAFETWLDDLLDELAPCLDPQRPLLLVLDDYHLAQGAVLDRCLQFLLNHLPEGLVLLVTSRQRPDWHLARLRLSRQLLELSEQDLRLTAEESGALMAASGLELDEDALDALLERSEGWVAGLRLWLLARGDPEEQVSPGVHGADELIRDYLLEEVIERQPPEVQAFLAQTARFERFCAELCDTVREAGDSAAILDHLQQHQVFLVPLDENGQWFRYHHLFSDLLLARPLPDFGPSAGSLHLRACGWFSRHGLLDQAVEQALRAGQPDVAASLVQNLSEEQLLAEQNIATLLRWKMDLPDSLLASTPRLILLYGWALALACQLDAAEELAGQLARFLPAPDESAQRDLLAQWQALSGVIARGRGDIDKAEAHCREALQDLAGERYGTRLQCLSTLSNLAVTRGDFWQA”, the “soluble on expression in E. coli” value is reported as “not soluble”. For “MTDQRRNVYFFHKQDQETNEQARSLTQLAEEHGFTVVNQHSDANIIASIGGDGTFLQAVRKTNFRDDCLYVGITKKGKAHLYCDFHSDEREKMVDAMTFEQIEVRKYPLIEVTVDQASPFHCLNEVSIRSSIIKTFVMDVLIDDLHFETFRGDGMIISTPTGSTAYNKSVAGAVVDPLLPCMQVSELASLNNNTYRTLGSPFVLSSDRKLTLRVVQDGNEHPIIGLDNEALSTRNVKTIEIKLSNKKIKTVKLKDNSFWEKVKRTFLLEHHHHHH”, the “soluble on expression in E. coli” value was “not soluble”. In the case of “MTDSTTLYPVFAEELLPGGGHRSFILKRGELLRLTDLNGNANVSLTLLNAHEKTERLNLPDSLKCQHTAKLSNGHCLYSDMGRVLAAIVTDTCGWSDSIGGVLNAQEVAEKYGQGRYQELRNGFFRNGVDNLLVELGKWGLGLSDLLMTLNLFSRVDVSETGTLHFAPNNSKAGDYIELYAPMDTLVVLTALQHPMDPNPDYVPQPLTLSWMKADASVAEHCRTSRPENERGFINTDRLFALEHHHHHH”, the “soluble on expression in E. coli” value is reported as “soluble”. For “MTDTHAHLDFLEPEELAEAAAHLPKLRAVLTLGVDPGRWEKTLSLAQGNVYAAVGLHPTSAHLLSPRWRRPFRHYARSERVRAIGETGLDYYWTPETRAVQLKALDFQAALAEALGLPLVLHVRSKDGKAEEDLAAWLLLHRPKRAVLHAFSGHPALEAAGLEVGAYFSFAGPLTYRKNAALREAAARLPEDRLLVETDTPFLPPEPFRGKRNRPHYVRFTLEKLAEARGLPFAEAEALTDRNARVCFGWP”, the “soluble on expression in E. coli” value was “soluble”. For “MTDTNSQWIEMNLQRQRKMLEDKQKQKRHQSAGSVRTTSTAMSMNSMKDYPTFDNSLPFSISDNSSVSVSMNTPLIPTQDPIAQPRMQSMPRQQPQQVQESLISIGDYPDNDINAKLSKVNLTSCVVSDDEDEDKRSYADSPWNTDVVADRIPSEVLPDYNFIKNNLAKFVEDPAVEHCLYKCSITRQKSGVDKGMFPTYFLHLEEFDTDKRQKIFLLAARKRKKSTTANYLLSTDPTNLSREGEGYCAKVRSNALGTQFTVYDSGQNPKKTTNHAAIRQELAAVIYETNVLGFKGPRKMTIVMPGIEPPTENRPAVRCPVRPIQDKHTLLERYRLNDLDSLKILSNKSPQWNDETQSYVLNFHGRVTQASVKNFQIIHQSSPEYIVMQFGRISDDEFTMDFRYPLSAVQAFGIAMTSFHGKLACE”, the “soluble on expression in E. coli” value was “not soluble”.
